From publication PMC9712113, “Medin co-aggregates with vascular amyloid-β in Alzheimer’s disease” (Nature, 2022)

Target: the molecule itself
Assay: Thioflavin T fluorescence seeding assay; 10 µM monomeric Met-Aβ or CT-medin with 0.5 µM sonicated pre-formed seeds of either peptide; 50 mM Tris pH 8, 25 µM ThT, 30 °C

B1: C-terminal fragment of medin (peptide)
peptide: EVTGIITQGARNFGSVQFVASYK
notes: C-terminal fragment of medin / MFG-E8, identified in tissue extracts by mass spectrometry; also called CT-medin; C-terminal medin fragment; source: synthetic peptide (Intavis Multipep RSi solid phase synthesis, purity >90%)
B1: binds.
